Measured values reported in PMC10912226, “Filament formation drives catalysis by glutaminase enzymes important in cancer progression” (Nature Communications, 2024).
Positions count from the first letter of the chain named. Names and notes keep the numbering of the source.

Columns and labels:
[1] = molecular target: the molecule itself; experiment: cryo-EM structure; GLS2 5 µM with 30 µM inhibitor 968 in 2% DMSO; 2D classification, dimer classes kept, 3.65 Å map, model not built
[2] = molecular target: the molecule itself; experiment: cryo-EM structure; apo-GLS2, 5 µM, no substrate or activator; single particle, C2 symmetry; step: subunits in the tetramer
[3] = molecular target: the molecule itself; experiment: negative stain electron microscopy; glutaminase 1 µM with glutamine 20 mM and inorganic phosphate (50-200 mM), RT, 30 s to 1 min after mixing (GAC Y466W with DMSO also 30 min); step: tetramers to filament

B1: human liver-type glutaminase GLS2, wild type, without the mitochondrial localization sequence (residue 38-602) (enzyme, UniProt Q9UI32 38-602, looked up)
chain: HHLSEAAAQGRETPHSHQPQHQDHDSSESGMLSRLGDLLFYTIAEGQERIPIHKFTTALKATGLQTSDPRLRDCMSEMHRVVQESSSGGLLDRDLFRKCVSSNIVLLTQAFRKKFVIPDFEEFTGHVDRIFEDVKELTGGKVAAYIPQLAKSNPDLWGVSLCTVDGQRHSVGHTKIPFCLQSCVKPLTYAISISTLGTDYVHKFVGKEPSGLRYNKLSLNEEGIPHNPMVNAGAIVVSSLIKMDCNKAEKFDFVLQYLNKMAGNEYMGFSNATFQSEKETGDRNYAIGYYLKEKKCFPKGVDMMAALDLYFQLCSVEVTCESGSVMAATLANGGICPITGESVLSAEAVRNTLSLMHSCGMYDFSGQFAFHVGLPAKSAVSGAILLVVPNVMGMMCLSPPLDKLGNSHRGTSFCQKLVSLFNFHNYDNLRHCARKLDPRREGAEIRNKTVVNLLFAAYSGDVSALRRFALSAMDMEQKDYDSRTALHVAAAEGHIEVVKFLIEACKVNPFAKDRWGNIPLDDAVQFNHLEVVKLLQDYQDSYTLSETQAEAAAEALSKENLESMV
notes: Tetramer in the apo state (cryo-EM); tetramers stack into filaments with glutamine and Pi; also called LGA; apo-GLS2; source: E. coli BL21 (DE3), purified (Co2+ TALON resin, HiTrap Q anion exchange, Superdex 200 SEC)
stoichiometry N [1]: 2 | stoichiometry N [2]: 4

B2: human GLS2 (N308A) mutant (enzyme, UniProt Q9UI32 38-602, looked up)
chain: B1 chain with N271A
notes: liver-type glutaminase GLS2, human, residues 38-602, with N308A in the tetramer-tetramer (filament) interface; source: E. coli BL21 (DE3), purified (Co2+ TALON resin, HiTrap Q anion exchange, Superdex 200 SEC)
stoichiometry N [3]: 4
